Read-outs that look alike come from different tables or passages of the source.
B1: anti-hPD1 antibody #2 (antibody, human IgG4, V domains shown)
VH: QVQLVQSGAEVKKPGASVKVSCKASGYTFTSYWMHWVRQAPGQGLEWMGEIDPYDSYTNYNQKFKGRVTMTVDKSTSTVYMELSSLRSEDTAVYYCARPGNTYGGMDYWGQGTLVTVSS
VL: DIQMTQSPSSLSASVGDRVTITCRSSQSLFNSGNQKNYLAWYQQKPGKVPKLLIYGASTRDSGVPYRFSGSGSGTDFTLTISSLQPEDVATYYCQNDHYYPYTFGGGTKVEIK
notes: also called Anti-hPD1 #2; Anti-PD1 #2
B2: altered anti-hPD1 antibody #1 (antibody, human IgG4 S228P, kappa, V domains shown)
VH: QVQLVQSGAEVKKPGASVKVSCKASGYTFTNYWIHWVRQAPGQDLEWMGEIDPYDSYTNYNQKFKGRVTMTVDKSTSTVYMELSSLRSEDTAVYYCARPGFTYGGMDFWGRGTLVTVSS
VL: DIQMTQSPSSLSASVGDRVTITCKSSQSLFNSGNQKNYLAWYQQKPGKDPKLLIYGASTRDSGVPYRFSGSGSGTDFTLTISSLQPEDVATYYCQNDHYYPYTFGRGTKVEIKR
B3: anti-hPD1 antibody #3 (antibody, human IgG4, V domains shown)
VH: QVQLVQSGAEVKKPGASVKVSCKASSYTFTNYWMHWVRQAPGQGLEWMGEIDPYDSYTNYNQKFKGRVTMTIDTSTSTVYMELSSLTSEDTAVYYCARPGFTYGGMDFWGQGTLVTVSS
VL: DIQMTQSPSSLSASVGDRVTITCKSSQSLFNSGNQKNYLAWYQQKPGKVPKLLIYGASTRESGVPARFSGSGSGTDFTLTISSLQAEDVATYYCQNDHYYPYTFGGGTKVEIK
notes: also called Anti-hPD1 #3; Anti-PD1 #3
B4: anti-hPD1 antibody #7 (antibody, human IgG4, V domains shown)
VH: QVQLVQSGAEVKKPGASVKVSCKASGYTFTNYWIHWVRQAPGQGLEWMGEIDPYDSYTNYNQKFKGRVTMTIDKSTNTVYMELSSLRSEDTAVYYCARPGLTYGGMDFWGQGTLVTVSS
VL: DIVMTQSPDSLAVSLGERATINCRSSQSLFISGNQKNYLAWYQQKPGQPPKLLIYGASTRESGVPDRFSGSGSGTDFTLTISSLQAEDVAVYYCQNNHYYPYTFGGGTKVEIK
notes: also called Anti-hPD1 #7; Anti-PD1 #7
B5: anti-hPD1 antibody #10 (antibody, human IgG4, V domains shown)
VH: QVQLVQSGAEVKKPGASVKVSCKASGYTFTSYWMHWVRQAPGQGLEWMGEIDPFDSYTNYNQKFKGRVTMTIDKSTNTVYMELSSLGSEDTAVYYCARPGYTYGGMDFWGQGTLVTVSS
VL: DIVMTQSPDSLAVSLGERATINCRSSQSLFISGNQKNYLAWYQQKPGQPPKLLIYGASTRDSGVPDRFSGSGSGTDFTLTISSLQAEDVAVYYCQNNHYYPYTFGGGTKVEIK
notes: also called Anti-hPD1 #10; Anti-PD1 #10
B6: anti-hPD1 antibody #5 (antibody, human IgG4, V domains shown)
VH: QVQLVQSGAEVKKPGASVKVSCKASGYTFTNYWMHWVRQAPGQGLEWMGEIDPFDSYTNYNQKFKGRVTMTRDKSTSTVYMELSSLRSEDTAVYYCARPGFTYGGMDFWGQGTLVTVSS
VL: DIQMTQSPSSLSASVGDRVTITCRSSQSLLNSGNQKNYLAWYQQKPGKLPKLLIYGASTRDSGVPSRFSGSGSGTDFTLTISSLQAEDVATYYCQNDHYYPYTFGGGTKVEIK
notes: also called Anti-hPD1 #5; Anti-PD1 #5
B7: anti-hPD1 antibody #14 (antibody, human IgG4, V domains shown)
VH: QVQLVQSGAEVKKPGASVKVSCKASGYTFTNYWIHWVRQAPGQGLEWMGEIDPYDSYTNYNQKFKGRVTMTGDKSTSTVYMELSSLTSEDTAVYYCARPGYTYGGMDFWGQGTLVTVSS
VL: DIQMTQSPSSLSASVGDRVTITCKSSQSLFNSGNQKNYLAWYQQKPGKLPKLLIYGASTRDSGVPSRFSGSGSGTDFTLTISSLQPEDVATYYCQNDHYYPYTFGGGTKVEIK
notes: also called Anti-hPD1 #14; Anti-PD1 #14
B8: anti-hPD1 antibody #4 (antibody, human IgG4, V domains shown)
VH: QVQLVQSGAEVKKPGASVKVSCKASGYTFTNYWMHWVRQAPGQGLEWMGEIDPFDSYTNYNQKFKGRVTMTRDTSTSTVYMELSSLTSEDTAVYYCARPGYTYGGMDFWGQGTLVTVSS
VL: DIQMTQSPSSLSASVGDRVTITCKSSQSLLNSGNQKNYLAWYQQKPGKPPKLLIYGASTRDSGVPSRFSGSGSGTDFTLTISSLQPEDVATYYCQNDHYYPYTFGGGTKVEIK
notes: also called Anti-hPD1 #4; Anti-PD1 #4
B9: anti-hPD1 antibody #9 (antibody, human IgG4, V domains shown)
VH: QVQLVQSGAEVKKPGASVKVSCKASGYTFTSYWMHWVRQAPGQGLEWMGEIDPYDSYTNYNQKFKGRVTMTIDKSTSTVYMELSSLTSEDTAVYYCARPGFTYGGMDFWGQGTLVTVSS
VL: DIVMTQSPDSLAVSLGERATINCRSSQSLLISGNQKNYLAWYQQKPGQPPKLLIYGASTRDSGVPDRFSGSGSGTDFTLTISSLQAEDVAVYYCQNNHYYPYTFGGGTKVEIK
notes: also called Anti-hPD1 #9; Anti-PD1 #9

Columns and labels:
[1] = target: T1, human PD1 expressed on a cell surface (human, UniProt Q15116 25-288); assay: flow cytometry on OKT3-activated human T cells, CD4- cells
T1 construct: whole, on cells; also called hPD1
T1 sequence (Q15116 25-288): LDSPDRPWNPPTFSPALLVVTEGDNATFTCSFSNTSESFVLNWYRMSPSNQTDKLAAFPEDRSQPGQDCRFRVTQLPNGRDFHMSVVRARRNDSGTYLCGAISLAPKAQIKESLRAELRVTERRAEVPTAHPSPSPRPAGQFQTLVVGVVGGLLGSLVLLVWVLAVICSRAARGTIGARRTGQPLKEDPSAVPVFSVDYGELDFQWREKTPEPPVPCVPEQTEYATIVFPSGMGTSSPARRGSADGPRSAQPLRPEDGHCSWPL
Procedure: (§1) The following experiment tested whether the selected anti-hPD1 antibodies can bind to native PD1 expressed on the surface of activated T cells. Human PBMCs were pre-activated with OKT3 (an anti-CD3 antibody) at a concentration of 1 μg/ml. After three days, the PBMCs, which were mostly activated T cells at this time, were distributed into a 96 well microtiter plate using 0.1×10⁶ cells/well. […] The antibody bound to CD4⁺ T cells and CD4⁻ T cells (which were predominately CD8⁺ T cells) was detected using anti-hlgG-FITC and an anti-CD4 antibody labeled with allophycocyanin (anti-CD4-APC).
(§2) The samples were analyzed by flow cytometry (FACScalibur, BD), and binding was reported as an MFI. EC₅₀'s for binding were calculated using GraphPad Prism software.

[2] = target: T1, human PD1 expressed on a cell surface; assay: cell-based or functional assay
[3] = target: T1, human PD1 expressed on a cell surface; assay: flow cytometry on OKT3-activated human T cells, CD4+ cells
Procedure: as §1, §2

[4] = target: T1, human PD1 expressed on a cell surface; assay: cell-based or functional assay; remark: listed apart in the source
[5] = target: T1, human PD1 expressed on a cell surface; assay: cell-based or functional assay; remark: listed apart in the source
[6] = target: T1, human PD1 expressed on a cell surface; assay: cell-based or functional assay; remark: listed apart in the source
[7] = target: T2, soluble, biotinylated PD1 protein containing only the extracellular region (human, UniProt Q15116 25-170, biotinylated in vivo (site not stated)); assay: …; inhibition of GST-hPDL1 binding to biotinylated hPD1
T2 construct: extracellular domain; also called biotinylated hPD1
T2 sequence (Q15116 25-170): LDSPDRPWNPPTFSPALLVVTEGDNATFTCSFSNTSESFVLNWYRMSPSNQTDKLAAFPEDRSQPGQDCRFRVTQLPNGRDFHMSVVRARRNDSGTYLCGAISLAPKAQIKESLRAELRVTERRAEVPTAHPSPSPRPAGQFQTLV
Procedure: Finally, 10 μL of streptavidin donor beads (which can bind the biotinylated hPD1) were added to bring the final concentration of donor beads to 16 μg/mL, and the plates were incubated in the dark at RT for one hour. […] An antibody that inhibits this interaction or binding will decrease the signal, since the inhibiting antibody prevents physical proximity of the donor and acceptor beads.
Plates were read in an EnVision 2103 Multilabel Reader (PerkinElmer) using illumination at a wavelength of 680 nm and reading emission at a wavelength of about […]. The results were plotted and IC₅₀ values were calculated using GraphPad Prism software.

[8] = target: T3, recombinant human (rhu) PD1 (extracellular domain only) (human, UniProt Q15116 25-170); assay: SPR (Biacore 3000), antibody captured by anti-human IgG, PD1 as analyte
T3 construct: extracellular domain; also called recombinant human PD1
T3 sequence (Q15116 25-170): as above
Procedure: (§3) Biosensor analysis was conducted at 25° C. in an HBS-EP buffer (10 mM HEPES, 150 mM NaCl, 3 mM EDTA, 0.005% polysorbate 20, 0.1% bovine serum albumin, pH 7.4) using a Biacore 3000 optical biosensor equipped with a CM5 sensor chip according to the manufacturer's general protocol. The auto sampler was maintained at ambient temperature. […] About 8000 resonance units (RU) of this antibody was immobilized on these chips. Flow cell 4 was used to analyze captured anti-hPD1 antibodies (about 100 to 200 RU were captured on flow cell 4), while flow cell 3 was used as the reference flow cell. Both analytes, recombinant human PD1 and recombinant cynomolgus PD1, were prepared in five concentrations for each antibody tested. The analyte concentrations tested ranged from 1.2 to 300 nM. All analyte dilutions were prepared in HPS-EP buffer. Each of the five analyte sample concentrations were run in duplicate and in a mixed order, as a means of assessing the reproducibility of binding and mitigating systematic bias to the order of injection. Multiple blank (running buffer) injections also were run and used to assess and subtract system artifacts. The association phase and dissociation phase for all analyte concentrations were monitored for 300 seconds and 1500 seconds, respectively, at a flow rate of 50 μL/min. Between antibody samples the surface of the flow cell was regenerated with 10 mM glycine, pH 1.5 for 30 seconds at a flow rate of 50 μL/min.
(§4) The data was aligned, double referenced, and fit using SCRUBBER 2™ software (BioLogic Software, Pty, Australia), which is a Surface Plasmon Resonance (SPR) data processing and non-linear least squares regression fitting program.

[9] = target: T4, extracellular domain of a recombinant cynomolgus (rcyno) PD1 (cynomolgus monkey, UniProt B0LAJ3 25-170); assay: as above
T4 construct: also called recombinant cynomolgus PD1
T4 sequence (B0LAJ3 entry or part of it limits assumed): as the sequence (Q15116 25-170) above, with D2E, P10A, V19L, T35A, Q75R, T144A counted along it
Procedure: as §3, §4

| Binder | EC50 [1] | IC50, luciferase (RLU), PD1 dual cell reporter assay (Jurkat cells with hPD1 plus CHO-K1 cells with hPDL1) [2] | EC50 [3] | IC50, luciferase reporter assay (Jurkat cells with hPD1 plus CHO cells with hPDL1) [4] | IC50, luciferase reporter assay (Jurkat cells with hPD1 plus CHO cells with hPDL1); tested as the mixture Altered anti-CTLA4 10D4 and altered anti-PD1 #1 made in one cell line [4] | IC50, luciferase reporter assay (Jurkat cells with hPD1 plus CHO cells with hPDL1) [5] | IC50, luciferase reporter assay (Jurkat cells with hPD1 plus CHO cells with hPDL1); tested as the mixture Altered anti-CTLA4 11F4 and altered anti-PD1 #1 made in one cell line [5] | EC50 for CD4+ T cell proliferation (pM), mixed lymphocyte reaction [6] | EC50 for CD8+ T cell proliferation (pM), mixed lymphocyte reaction [6] | EC50 for IFN gamma production (pM), mixed lymphocyte reaction [6] | IC50 [7] | Kd [8] | koff [8] | kon [8] | Kd [9] | koff [9] | kon [9] |
| --- | --- | --- | --- | --- | --- | --- | --- | --- | --- | --- | --- | --- | --- | --- | --- | --- | --- |
| B1 | 0.416 nM | 2.45 nM | 0.398 nM |  |  |  |  |  |  |  |  |  |  |  |  |  |  |
| B2 |  |  |  | 2.65 nM | 3.8 nM | 2.67 nM | 3.34 nM |  |  |  |  |  |  |  |  |  |  |
| B3 | 0.69 nM | 2.37 nM | 0.536 nM |  |  |  |  | 365 pM | 3670 pM | 2220 pM | 0.305 nM | 5.16 nM | 0.000348 s⁻¹ | 67400 M⁻¹ s⁻¹ |  |  |  |
| B4 | 0.569 nM | 2.39 nM | 0.439 nM |  |  |  |  | 165 pM | 1520 pM | 1460 pM | 0.307 nM | 0.297 nM | 3.54e-05 s⁻¹ | 119000 M⁻¹ s⁻¹ | 0.4 nM | 5.79e-05 s⁻¹ | 145000 M⁻¹ s⁻¹ |
| B5 | 1.6 nM | 2.69 nM | 1.07 nM |  |  |  |  | 234 pM | 839 pM | 2210 pM | 0.279 nM | 0.917 nM | 7.15e-05 s⁻¹ | 78000 M⁻¹ s⁻¹ |  |  |  |
| B6 | 1.12 nM | 3 nM | 0.974 nM |  |  |  |  |  |  |  |  |  |  |  |  |  |  |
| B7 | 0.449 nM | 2.69 nM | 0.39 nM |  |  |  |  |  |  |  |  |  |  |  |  |  |  |
| B8 | 0.885 nM | 2.03 nM | 0.672 nM |  |  |  |  | 391 pM | 534 pM | 1540 pM | 0.314 nM | 4.62 nM | 0.000279 s⁻¹ | 60400 M⁻¹ s⁻¹ |  |  |  |
| B9 | 1.48 nM | 3.13 nM | 1.01 nM |  |  |  |  |  |  |  |  |  |  |  |  |  |  |
